US20250382381A1 (CORNELL UNIVERSITY, published 2025)

Tests used:
[1] = biological target: T1, human ART1 expressed on HEK293 cells (human, UniProt P52961 23-295); experiment: cell-based or functional assay
T1 sequence: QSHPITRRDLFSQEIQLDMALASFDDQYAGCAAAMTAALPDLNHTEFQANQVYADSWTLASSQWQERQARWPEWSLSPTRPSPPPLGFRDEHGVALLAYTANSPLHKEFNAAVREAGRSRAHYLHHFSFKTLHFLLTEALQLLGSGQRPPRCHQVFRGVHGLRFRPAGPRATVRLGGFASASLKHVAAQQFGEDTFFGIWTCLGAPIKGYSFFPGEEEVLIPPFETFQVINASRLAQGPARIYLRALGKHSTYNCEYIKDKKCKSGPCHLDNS

[2] = biological target: T2, purified recombinant human ART1 (human, UniProt P52961 23-295); experiment: SPR; antibody captured on anti-mouse Fc surface, ART1 as analyte, 1:1 kinetic fit
T2 construct: Produced in HEK293 cells and purified; also called huART1; human ADP-ribosyltransferase 1
T2 sequence: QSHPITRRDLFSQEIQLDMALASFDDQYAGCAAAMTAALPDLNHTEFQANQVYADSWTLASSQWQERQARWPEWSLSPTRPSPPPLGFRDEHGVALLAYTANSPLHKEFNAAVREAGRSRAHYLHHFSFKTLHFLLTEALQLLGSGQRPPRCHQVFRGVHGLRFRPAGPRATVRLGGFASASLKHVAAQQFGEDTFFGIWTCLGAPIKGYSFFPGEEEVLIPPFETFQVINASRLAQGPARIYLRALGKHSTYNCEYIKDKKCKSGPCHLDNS
Experimental: (§1) FIGS. 12A-12D. […] Sensorgrams are double-reference subtracted using a control surface and blank injections. Affinity constants were determined by kinetic fit using a 1:1 binding model.

[3] = biological target: T3, purified recombinant mouse ART1 (mouse, UniProt Q60935 23-290); experiment: as above
T3 construct: Produced in HEK293 cells and purified; also called moART1; murine ART1
T3 sequence: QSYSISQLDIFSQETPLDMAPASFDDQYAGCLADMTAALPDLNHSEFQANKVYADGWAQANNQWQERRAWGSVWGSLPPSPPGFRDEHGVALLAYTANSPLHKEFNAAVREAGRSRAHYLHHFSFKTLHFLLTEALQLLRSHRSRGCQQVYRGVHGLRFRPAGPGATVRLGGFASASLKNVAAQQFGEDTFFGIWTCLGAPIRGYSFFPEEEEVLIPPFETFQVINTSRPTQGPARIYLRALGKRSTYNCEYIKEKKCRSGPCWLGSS
Experimental: as §1

[4] = biological target: T1, human ART1 expressed on HEK293 cells; experiment: panel 'ART1 Ab binding' on HEK293 cells transfected with ART1; y axis GMFI, Ratio to 2nd Only, x axis Log[Ab], nM (the legend calls it a NAD-Glo assay); the curve rises from about 3.3 to a plateau of about 13
[5] = biological target: T3, purified recombinant mouse ART1; experiment: sensorgrams R [RU] against time [s] with fitted lines, panel '14G01 Binding moART1', moART1 at 200.0, 100.0, 25.00, 12.50, 3.125, 1.563 nM; format not told for this figure (FIG. 12 legend: SPR, antibody captured on anti-mouse Fc, 1:1 fit)
[6] = biological target: T2, purified recombinant human ART1; experiment: sensorgrams R [RU] against time [s] with fitted lines, panel '14G01 Binding huART1', huART1 at 100.0, 25.00, 12.50, 6.250, 3.125, 1.563 nM; format not told for this figure (FIG. 12 legend: SPR, antibody captured on anti-mouse Fc, 1:1 fit)

Row | Binder | IC50 Cell Surface ADP-Ribosylation [1] | Kd [2] | Kd [3] | EC50 [4] | Kd [5] | Kd [6]
1 | 22C12 monoclonal antibody (parental, mouse light chain) (antibody, V domains shown, Purified from hybridoma supernatant (AlivaMab Mouse); VH is human and VK is mouse; The antibody was captured on an anti-mouse Fc surface in SPR; also called 22C12 (mLC); mLC22C12) VH: QVTLKESGPVLVKPTETLTLTCTVSGFSLSNARMGVSWIRQPPGKALEWLAHIFSNDEKSYSTSLKSRLTISKDTSKSQVVLTMTNMDPVDTATYYCARIYGGDSWGYFDNWGQGTLVTVSS VL: QIVLTQSPAIMSASLGEKVTMTCSASSSVSYMHWYQQKSGTSPKRWIYDTSKLASGVPARFSGSGSGTSYSLTISSMEAGDAATYYCQQWSSNPPTFGAGTKLELK | 14 nM | 0.161 nM | 0.439 nM | 0.75 nM |  | 
2 | 14G01 monoclonal antibody (antibody, V domains shown, Purified from hybridoma supernatant; VH and VK are human; The antibody was captured on an anti-mouse Fc surface in SPR) VH: QVQLQESGPGLVKPSETLSLTCTVSGGSISSYYWSWIRQPAGKGLEWIGRISTSGFTNYNPSLKSRVTMSVDSSKNQFSLKLSSLTAADTAVYYCARDGWGRVFDIWGLGTMVTVSS VL: not shown | 28 nM | 4 nM | 6 nM |  | 6.2 nM | 3.8 nM
